Laboratory results taken from patent US10624968B2, “Compounds for treating cancer” (Bicycle Therapeutics Limited, priority 2017, dated 2020).
pIC50: −log10 of the molar value. Read-outs that look alike come from different tables or passages of the source. Starred links: 1 amine or outer side, 2 acyl side, 3 side chain; linkers in the order of their positions; H or OH if unused. Positions of bridges follow the written chain, without caps; N, C: chain ends. Non-standard residues stand in square brackets, D forms with d. Residues, ends and D or L forms follow the SMILES beside them. Chains are numbered I, II in the order given. ξ: configuration not given here. *: point of attachment. Dolaproine = CO[C@@H]([C@@H]1CCCN1)[C@@H](C)C(=O)O; Dil = CC[C@H](C)[C@H](NC)[C@@H](CC(=O)O)OC; TBMB = c1c(C[*:1])cc(C[*:3])cc1C[*:2]; X2 = O=C(CCCC(=O)[*:2])NCCC(=O)[*:1]; PABC = O=C(OCc1ccc(N[*:1])cc1)[*:2]; X1 = C[C@@H](N*)[C@@H](O)c1ccccc1; ξ1Nal = NC(Cc1cccc2ccccc12)C(=O)O; Cit = NC(=O)NCCC[C@H](N)C(=O)O; NMeV = CN[C@H](C(=O)O)C(C)C; ξY = NC(Cc1ccc(O)cc1)C(=O)O; ξTle = CC(C)(C)C(N)C(=O)O; ξF = NC(Cc1ccccc1)C(=O)O; ξE = NC(CCC(=O)O)C(=O)O; ξD = NC(CC(=O)O)C(=O)O; ξN = NC(=O)CC(N)C(=O)O; ξC = NC(CS)C(=O)O; ξA = CC(N)C(=O)O; Sar = CNCC(=O)O

Legend:
[1] = Body weight of mice bearing EBC-1 xenograft (indirect measure of toxicity); type: in vivo, mouse
Procedure: All the procedures related to animal handling, care and the treatment in the study were performed according to the guidelines of the Association for Assessment and Accreditation of Laboratory Animal Care (AAALAC). At the time of routine monitoring, the animals were daily checked for any effects of tumor growth and treatments on normal behavior such as mobility, food and water consumption (by looking only), body weight gain/loss (body weights were measured every day), eye/hair matting and any other abnormal effect as stated in the protocol. Death and observed clinical signs were recorded on the basis of the numbers of animals within each subset.
Animal body weight was monitored regularly as an indirect measure of toxicity.

[2] = Body weight in HT1080 xenograft model (Example 7); type: in vivo; conditions: any of the doses tested (1, 3, and 10 mg/kg)
Procedure: I-1a was evaluated in a HT1080 xenograft model at 1, 3, and 10 mg/kg. Additionally the ability of the binding peptide (the Bicycle+Spacer of I-1a, structure shown in Example 6) to abrogate activity when dosed at a 100-fold excess immediately before treatment with I-1a in the HT1080 xenograft model was assessed.

[3] = Plasma stability (LC-MS/MS assay), mouse plasma, with and without AEBSF; type: in vitro ADME
Procedure: I-1a plasma stability studies were conducted in human and mouse plasma.
In vitro plasma stability assay measures the extent of degradation of compounds in plasma.
Peptides or BDCs are incubated at 37° C. in plasma (mouse or human) at low micromolar concentrations for several hours. The stability is quantitatively measured by LC-MS/MS.
Add 8 μL of the 160 μM DMSO stock of peptide or BDC and add 8 μL of 160 μM DMSO stock of 06-34-18-N182 as internal standard to 304 μL of plasma (152 μL*2) for a final concentration of 4 μM (5% DMSO).
Incubate at 37° C. in 100% humidity.
Pipette out 40 μL for 7 timepoints: time 0, 1 h, 2 h, 4 h, 6 h, 8 h, 24 h into a 1.5 mL Eppendorf. Store at −80° C. immediately. (total volume of samples?×40=280 μL).
Add to the sample the extraction solvent. The extraction solvent contains 1 part of water, 3 parts of methanol, and 3 parts of acetonitrile.
To the time course samples add 120 μL of extraction solvent, mix thoroughly with pipette and gently vortex.
Centrifuge for 40 minutes at 14000 rpm at 4° C.
Transfer the supernatant to the LC-MS vials and run the experiment immediately afterwards.
It is recommend to follow one transition for the peptide of BDCs to study, and one transition for the internal standard 06-34-18-N182 at the same time. The most relevant Selected Ion Reaction (SIR) and Multiple Reaction Monitoring (MRM) transitions were determined for each peptide or BDC.
The analysis of the data has been performed using “QuanLynks” and “Sigmaplot” software.
For the studies depicted in FIGS. 1-3, the following conditions were used.
Column: Waters ACQUITY CSH Phenyl-Hexyl 1.7 μm 2.1×50 mm
Mobile Phase: […] ammonium bicarbonate in water; B=5 mM ammonium bicarbonate 10% water in acetonitrile.
Gradient: 5 to 60% B in 4 minutes at 0.6 mL/min flow.
To test the hypothesis that plasma instability in mouse was due to Ces1c, I-1a was incubated in mouse plasma both in the presence and absence of AEBSF,
Additionally, formation of the MMAE metabolite in mouse plasma (release of the toxin) was monitored both in the presence and absence of AEBSF.

11 tumor cell lines = assay: 11 cancer cell line panel cytotoxicity, statements on the whole panel; conditions: all tested cell lines; 72 hours
Description: (§1) Details of the initial cell plating procedure are described in Table 3.
(§2) Data Details for Tables 5 and 6. Inhibition %=(Max−Sample value)/(Max−Min)*100.
(§3) The IC50 curves were generated by 4 Parameter Logistic Model—Sigmoidal Dose-Response Model as follows: Y=Bottom+(Top−Bottom)/(1+10^((log EC50-X)*HillSlope)).

MOLP-8 = assay: cells; conditions: read-out: Re IC50; MOLP-8; 72 hours
Description: as §1, §2, §3

PC-3 = assay: cells; conditions: read-out: Re IC50; PC-3; 72 hours
Description: as §1, §2, §3

MDA-MB-231 = assay: cells; conditions: read-out: Re IC50; MDA-MB-231; 72 hours
Description: as §1, §2, §3

SNU-16 = assay: cells; conditions: read-out: Re IC50; SNU-16; 72 hours
Description: as §1, §2, §3

NCI-H1975 = assay: cells; conditions: read-out: Re IC50; NCI-H1975; 72 hours
Description: as §1, §2, §3

NCI-H292 = assay: cells; conditions: read-out: Re IC50; NCI-H292; 72 hours
Description: as §1, §2, §3

HT29 = assay: cells; conditions: read-out: Re IC50; HT29; 72 hours
Description: as §1, §2, §3

HT1080 = assay: cells; conditions: read-out: Re IC50; HT1080; 72 hours
Description: as §1, §2, §3

HCT15 = assay: cells; conditions: read-out: Re IC50; HCT15; 72 hours
Description: as §1, §2, §3

EBC-1 = assay: cells; conditions: read-out: Re IC50; EBC-1; 72 hours
Description: as §1, §2, §3

HCC1806 = assay: cells; conditions: read-out: Re IC50; HCC1806; 72 hours
Description: as §1, §2, §3

Structure (SMILES): CC[C@H](C)[C@@H]([C@@H](CC(=O)N1CCC[C@H]1[C@H](OC)[C@@H](C)C(=O)N[C@H](C)[C@@H](O)c1ccccc1)OC)N(C)C(=O)[C@@H](NC(=O)[C@H](C(C)C)N(C)C(=O)OCc1ccc(NC(=O)[C@H](CCCNC(N)=O)NC(=O)[C@@H](NC(=O)CCCC(=O)NCCC(=O)N(C)CC(=O)N(C)CC(=O)N(C)CC(=O)N(C)CC(=O)N(C)CC(=O)N(C)CC(=O)N(C)CC(=O)N(C)CC(=O)N(C)CC(=O)N(C)CC(=O)NC(C)C(=O)NC2CSCc3cc4cc(c3)CSCC(NC(=O)C(C)NC(=O)C(Cc3cccc5ccccc35)NC(=O)C(CCC(=O)O)NC(=O)C(CC(N)=O)NC(=O)C(C)NC2=O)C(=O)NC(CCC(=O)O)C(=O)NC(CC(=O)O)C(=O)NC(Cc2ccccc2)C(=O)NC(Cc2ccc(O)cc2)C(=O)NC(CC(=O)O)C(=O)NC(C(C)(C)C)C(=O)NC(C(N)=O)CSC4)C(C)C)cc1)C(C)C (stereo partly shown) [Compound I-1a] (I: [Sar][Sar][Sar][Sar][Sar][Sar][Sar][Sar][Sar][Sar][ξA][ξC][ξA][ξN][ξE][ξ1Nal][ξA][ξC][ξE][ξD][ξF][ξY][ξD][ξTle][ξC]-NH2 / II: V[Cit][PABC][NMeV]V[Dil][Dolaproine]-X1; linker I:12-I:18-I:25 via TBMB; linker I:N-II:N via X2)
- Body Weight ([1]; 1 mg/kg i.v. tiw x2 w, day 0): 23.4 g
- Body Weight ([1]; 1 mg/kg i.v. tiw x2 w, day 2): 23.3 g
- Body Weight ([1]; 1 mg/kg i.v. tiw x2 w, day 4): 23.6 g
- Body Weight ([1]; 1 mg/kg i.v. tiw x2 w, day 7): 23.8 g
- Body Weight ([1]; 1 mg/kg i.v. tiw x2 w, day 9): 24.0 g
- Body Weight ([1]; 1 mg/kg i.v. tiw x2 w, day 11): 24.0 g
- Body Weight ([1]; 1 mg/kg i.v. tiw x2 w, day 14): 23.8 g
- Body Weight ([1]; 3 mg/kg i.v. tiw x2 w, day 0): 21.9 g
- Body Weight ([1]; 3 mg/kg i.v. tiw x2 w, day 2): 21.4 g
- Body Weight ([1]; 3 mg/kg i.v. tiw x2 w, day 4): 21.7 g
- Body Weight ([1]; 3 mg/kg i.v. tiw x2 w, day 7): 22.3 g
- Body Weight ([1]; 3 mg/kg i.v. tiw x2 w, day 9): 22.4 g
- Body Weight ([1]; 3 mg/kg i.v. tiw x2 w, day 11): 22.0 g
- Body Weight ([1]; 3 mg/kg i.v. tiw x2 w, day 14): 22.0 g
- Body Weight ([1]; 10 mg/kg i.v. tiw x2 w, day 0): 23.1 g
- Body Weight ([1]; 10 mg/kg i.v. tiw x2 w, day 2): 21.8 g
- Body Weight ([1]; 10 mg/kg i.v. tiw x2 w, day 4): 20.8 g
- Body Weight ([1]; 10 mg/kg i.v. tiw x2 w, day 7): 19.3 g
- Body Weight ([1]; 10 mg/kg i.v. tiw x2 w, day 9): 22.0 g
- Body Weight ([1]; 10 mg/kg i.v. tiw x2 w, day 11): 20.6 g
- Body Weight ([1]; 10 mg/kg i.v. tiw x2 w, day 14): 22.4 g
- effect on body weight (in words) ([1]; 10 mg/kg, 3× weekly schedule for two weeks): brief body weight loss which is reversible upon discontinuation of treatment
- effect on body weight (in words) [2]: No dose-related effects on body weight
- half-life at 4 μM ([3]; mouse plasma without AEBSF, pH 7.4 at 37° C.): 24 h
- remaining at 24 h, 4 μM ([3]; mouse plasma without AEBSF, pH 7.4 at 37° C., read-out: % remained after 24 hours incubation): 50%
- formation of the MMAE metabolite (release of the toxin) ([3]; mouse plasma, in the absence of AEBSF): I-1a degradation tracks with the appearance of free MMAE
- formation of the MMAE metabolite (release of the toxin) ([3]; mouse plasma, in the presence of AEBSF): lack of formation of free MMAE
- half-life at 1 μM ([3]; mouse plasma, 1 μM, pH 7.4 at 37° C.): 6.4 h
- remaining at 24 h, 1 μM ([3]; mouse plasma, 1 μM, pH 7.4 at 37° C., read-out: % remained after 24 hours incubation): 57%
- half-life at 4 μM ([3]; with AEBSF (concentration not stated), mouse plasma +AEBSF, pH 7.4 at 37° C.): > 24 h
- remaining at 24 h, 4 μM ([3]; with AEBSF (concentration not stated), mouse plasma +AEBSF, pH 7.4 at 37° C., read-out: % remained after 24 hours incubation): 100%
- cytotoxic activity over the cell line panel (in words) (11 tumor cell lines): works well on all cell lines except HCT-15
- pIC50 (MOLP-8): 6.71
- pIC50 (PC-3): 6.99
- pIC50 (MDA-MB-231): 6.68
- pIC50 (SNU-16): 7.20
- pIC50 (NCI-H1975): 7.62
- pIC50 (NCI-H292): 7.25
- pIC50 (HT29): 6.66
- pIC50 (HT1080): 7.67
- pIC50 (HCT15): < 5.30
- pIC50 (EBC-1): 7.45
- pIC50 (HCC1806): 7.82
